Laboratory results: publication PMC8056383

Target: 23C-176C double-cysteine mutant of full-length ClpB, labelled with Alexa Fluor 488 and Alexa Fluor 594 (Thermus thermophilus) (UniProt Q9RA63)
Sequence (Q9RA63 whole entry R23C/D176C): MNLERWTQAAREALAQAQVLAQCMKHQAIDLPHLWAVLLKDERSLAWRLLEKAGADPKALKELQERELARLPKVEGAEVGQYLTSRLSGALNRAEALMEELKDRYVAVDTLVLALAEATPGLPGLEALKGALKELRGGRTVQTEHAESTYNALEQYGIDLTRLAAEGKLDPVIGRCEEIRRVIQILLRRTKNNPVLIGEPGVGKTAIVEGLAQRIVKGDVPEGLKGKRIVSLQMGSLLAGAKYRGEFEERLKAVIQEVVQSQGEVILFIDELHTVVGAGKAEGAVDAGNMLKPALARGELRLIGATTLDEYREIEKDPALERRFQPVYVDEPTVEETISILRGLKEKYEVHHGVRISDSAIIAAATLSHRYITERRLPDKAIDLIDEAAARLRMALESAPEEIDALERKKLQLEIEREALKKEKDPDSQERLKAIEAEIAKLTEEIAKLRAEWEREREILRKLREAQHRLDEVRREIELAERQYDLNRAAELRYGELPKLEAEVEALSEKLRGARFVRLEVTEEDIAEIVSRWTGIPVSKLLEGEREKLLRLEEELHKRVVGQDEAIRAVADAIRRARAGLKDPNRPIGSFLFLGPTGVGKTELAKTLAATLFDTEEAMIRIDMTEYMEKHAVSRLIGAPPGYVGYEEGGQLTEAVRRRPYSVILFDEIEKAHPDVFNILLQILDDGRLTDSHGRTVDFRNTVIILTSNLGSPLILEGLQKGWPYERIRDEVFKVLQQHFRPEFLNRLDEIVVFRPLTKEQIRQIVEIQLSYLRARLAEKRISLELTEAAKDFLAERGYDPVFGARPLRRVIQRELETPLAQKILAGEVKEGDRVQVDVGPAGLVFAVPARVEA

ATPase activity of fully labeled 23C-176C ClpB with 25 μM κ-casein relative to basal: 3.1 fold
Substance: κ-casein (from UniProt P02668 22-190) (natural protein)
